Results on three molecules are retold here after patent publication US20040241754A1, “Modulating neuronal plasticity” (The Salk Institute for Biological Studies, priority 2003, published 2004).

The target of one test is EphA2 (Homo sapiens, UniProt P29317). As to conditions: read-out: Kd for binding to EphA2; cited from earlier work.
The target of the next test is T1, EphB4 (Homo sapiens, UniProt P54760).
T1 sequence (P54760 16-987): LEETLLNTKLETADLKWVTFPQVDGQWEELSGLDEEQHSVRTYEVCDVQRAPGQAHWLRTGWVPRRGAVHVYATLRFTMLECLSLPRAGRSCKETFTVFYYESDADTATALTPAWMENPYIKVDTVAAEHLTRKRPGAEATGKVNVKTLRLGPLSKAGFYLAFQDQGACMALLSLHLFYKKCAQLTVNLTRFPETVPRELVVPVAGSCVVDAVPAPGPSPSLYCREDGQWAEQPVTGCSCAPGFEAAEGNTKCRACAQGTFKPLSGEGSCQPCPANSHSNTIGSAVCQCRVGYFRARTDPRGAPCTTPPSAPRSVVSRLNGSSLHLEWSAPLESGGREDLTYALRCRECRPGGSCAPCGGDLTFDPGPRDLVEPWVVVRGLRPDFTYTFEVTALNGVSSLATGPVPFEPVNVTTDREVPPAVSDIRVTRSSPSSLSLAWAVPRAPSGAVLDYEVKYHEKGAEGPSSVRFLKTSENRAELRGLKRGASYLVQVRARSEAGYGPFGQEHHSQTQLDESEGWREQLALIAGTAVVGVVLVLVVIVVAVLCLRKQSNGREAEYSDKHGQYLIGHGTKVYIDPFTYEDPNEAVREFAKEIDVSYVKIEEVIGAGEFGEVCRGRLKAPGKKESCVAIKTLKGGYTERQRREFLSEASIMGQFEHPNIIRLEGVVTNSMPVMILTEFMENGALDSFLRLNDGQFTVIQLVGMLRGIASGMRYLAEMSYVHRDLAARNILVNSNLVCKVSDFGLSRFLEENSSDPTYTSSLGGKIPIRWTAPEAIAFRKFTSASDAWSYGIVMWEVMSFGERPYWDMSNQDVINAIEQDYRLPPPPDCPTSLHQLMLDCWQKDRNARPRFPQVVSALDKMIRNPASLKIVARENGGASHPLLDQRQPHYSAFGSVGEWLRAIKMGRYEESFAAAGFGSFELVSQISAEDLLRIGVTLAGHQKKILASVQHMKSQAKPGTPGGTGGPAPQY
As to conditions: read-out: Kd for binding to EphB4; cited from earlier work.

A further test deals with T2, His-GRIP-PDZ6 (UniProt P97879 672-754).
T2 construct: domain: PDZ 6; also called GRIP fragment containing only the PDZ 6 domain; PDZ domain 6 of GRIP; not shown: His tag
T2 sequence (looked up): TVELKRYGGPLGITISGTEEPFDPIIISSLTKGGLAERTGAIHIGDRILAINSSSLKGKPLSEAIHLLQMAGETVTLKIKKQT
Kind of test: displacement of ^35S-EphB2 from His-GRIP-PDZ6.

In a further test the target is T3, His-GRIP(PDZ4-6) (rat, UniProt P97879 448-792).
T3 construct: range 448-792; not shown: His tag and vector residues from pRSET
T3 sequence (looked up): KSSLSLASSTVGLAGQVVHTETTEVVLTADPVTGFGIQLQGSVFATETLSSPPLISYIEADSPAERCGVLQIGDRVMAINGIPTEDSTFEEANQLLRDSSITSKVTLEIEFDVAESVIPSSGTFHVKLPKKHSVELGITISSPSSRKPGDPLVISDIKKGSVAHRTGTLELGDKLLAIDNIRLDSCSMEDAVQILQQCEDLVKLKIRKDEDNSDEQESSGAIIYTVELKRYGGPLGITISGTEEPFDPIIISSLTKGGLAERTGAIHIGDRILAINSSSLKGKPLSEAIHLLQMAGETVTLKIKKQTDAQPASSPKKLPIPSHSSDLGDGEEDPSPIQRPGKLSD
Kind of test: displacement of ^35S-EphB2 (50 nM) from His-GRIP-PDZ4-6, Hill fit.

Chain of EphA2 (P29317 24-976): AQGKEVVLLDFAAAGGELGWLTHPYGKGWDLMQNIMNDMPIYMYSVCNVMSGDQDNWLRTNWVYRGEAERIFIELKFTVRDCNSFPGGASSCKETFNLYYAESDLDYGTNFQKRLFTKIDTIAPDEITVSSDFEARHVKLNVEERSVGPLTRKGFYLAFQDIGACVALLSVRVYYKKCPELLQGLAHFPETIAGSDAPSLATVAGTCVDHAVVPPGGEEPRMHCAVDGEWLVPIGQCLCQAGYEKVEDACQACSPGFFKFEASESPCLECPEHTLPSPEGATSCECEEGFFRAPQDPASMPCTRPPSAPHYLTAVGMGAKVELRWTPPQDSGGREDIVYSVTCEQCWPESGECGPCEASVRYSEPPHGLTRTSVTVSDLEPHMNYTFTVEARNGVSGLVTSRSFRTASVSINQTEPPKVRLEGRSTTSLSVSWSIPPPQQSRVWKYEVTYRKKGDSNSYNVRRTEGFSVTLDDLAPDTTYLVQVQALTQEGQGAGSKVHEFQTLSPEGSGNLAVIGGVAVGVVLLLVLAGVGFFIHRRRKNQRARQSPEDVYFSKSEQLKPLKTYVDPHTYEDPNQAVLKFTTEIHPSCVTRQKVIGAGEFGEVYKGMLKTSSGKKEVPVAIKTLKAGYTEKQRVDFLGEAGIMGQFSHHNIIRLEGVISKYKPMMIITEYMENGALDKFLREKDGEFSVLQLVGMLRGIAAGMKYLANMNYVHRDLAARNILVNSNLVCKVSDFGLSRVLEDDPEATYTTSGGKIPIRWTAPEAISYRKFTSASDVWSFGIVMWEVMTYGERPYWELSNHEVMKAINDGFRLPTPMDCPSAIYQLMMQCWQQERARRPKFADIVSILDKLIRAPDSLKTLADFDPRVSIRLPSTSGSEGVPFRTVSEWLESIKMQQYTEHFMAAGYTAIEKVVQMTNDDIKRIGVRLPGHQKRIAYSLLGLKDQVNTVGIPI

B1: ephrin-A1: a 25 kDa, 205 amino acid glycoprotein; ephrin ligand (protein, UniProt P20827 1-205, looked up)
chain: MEFLWAPLLGLCCSLAAADRHTVFWNSSNPKFRNEDYTIHVQLNDYVDIICPHYEDHSVADAAMEQYILYLVEHEEYQLCQPQSKDQVRWQCNRPSAKHGPEKLSEKFQRFTPFTLGKEFKEGHSYYYISKPIHQHEDRCLRLKVTVSGKITHSPQAHDNPQEKRLAADDPEVRVLHSIGHSAAPRLFPLAWTVLLLPLLLLQTP
modifications: full-length
notes: a 25 kDa, 205 amino acid glycoprotein; ephrin ligand
As usually defined, the Kd is the constant that tells how readily two partners part at equilibrium. As for B1, the Kd in the test with EphA2 is 25 nM.

B2: ephrin-B2: a 38-42 kDa, 333 amino acid glycoprotein; ephrin ligand (protein, UniProt P52799 1-333, looked up)
chain: MAVRRDSVWKYCWGVLMVLCRTAISKSIVLEPIYWNSSNSKFLPGQGLVLYPQIGDKLDIICPKVDSKTVGQYEYYKVYMVDKDQADRCTIKKENTPLLNCAKPDQDIKFTIKFQEFSPNLWGLEFQKNKDYYIISTSNGSLEGLDNQEGGVCQTRAMKILMKVGQDASSAGSTRNKDPTRRPELEAGTNGRSSTTSPFVKPNPGSSTDGNSAGHSGNNILGSEVALFAGIASGCIIFIVIIITLVVLLLKYRRRHRKHSPQHTTTLSLSTLATPKRSGNNNGSEPSDIIIPLRTADSVFCPHYEKVSGDYGHPVYIVQEMPPQSPANIYYKV
modifications: full-length
notes: a 38-42 kDa, 333 amino acid glycoprotein; ephrin ligand
Take B2: in the test with EphB4, the dissociation constant (Kd) was 0.535 nM.

B3: GluR2 carboxy terminal peptide (peptide)
peptide: NVYGIESVKI
notes: also called GluR2ct; R2ct
As usually defined, the Ki is a measure of affinity in units of concentration, obtained from inhibition or displacement. High values mean lower affinity, low ones higher affinity. On to B3, for which the Ki in the test with His-GRIP-PDZ6 was found to be 155 nM; in the test with His-GRIP(PDZ4-6) it was 106 nM.
